# Measured values: patent publication US20130217060A1 (Butamax(TM) Advanced Biofuels LLC, priority 2007, published 2013)
# How the values were obtained:
# [1] = test system: trans-2-enoyl-CoA reductase; assay: Trans-2-enoyl-CoA reductase activity assay (Hoffmeister et al.); format: biochemical; settings: induced E. coli BL21-AI culture carrying pRARE, one typical assay
# Procedure: Trans-2-enoyl-CoA reductase activity was assayed as described by Hoffmeister et al. (J. Biol. Chem. 280, 4329-4338 (2005)).
# Trans-2-enoyl-CoA reductase activity was assayed as described by Hoffmeister et al., J. Biol. Chem. 280:4329 (2005).
# Enzyme assays were performed as described above.
# [2] = test system: butyraldehyde dehydrogenase; assay: Acylating aldehyde dehydrogenase activity (NADH formation, 340 nm); settings: induced E. coli BL21-AI culture, one typical assay
Molecule,specific activity (trans-2-enoyl-CoA reductase) [1] [µmol/mg/min],specific activity (acylating aldehyde dehydrogenase) [2] [µmol/mg/min]
"TER CAC0462 protein: putative trans-2-enoyl-CoA reductase (SEQ ID NO:10) from C. acetobutylicum ATCC 824 expressed in E. coli (protein, listed as Clostridium acetobutylicum) MIVKAKFVKGFIRDVHPYGCRREVLNQIDYCKKAIGFRGPKKVLIVGASSGFGLATRISVAFGGPEAHTIGVSYETGATDRRIGTAGWYNNIFFKEFAKKKGLVAKNFIEDAFSNETKDKVIKYIKDEFGKIDLFVYSLAAPRRKDYKTGNVYTSRIKTILGDFEGPTIDVERDEITLKKVSSASIEEIEETRKVMGGEDWQEWCEELLYEDCFSDKATTIAYSYIGSPRTYKIYREGTIGIAKKDLEDKAKLINEKLNRVIGGRAFVSVNKALVTKASAYIPTFPLYAAILYKVMKEKNIHENCIMQIERMFSEKIYSNEKIQFDDKGRLRMDDLELRKDVQDEVDRIWSNITPENFKELSDYKGYKKEFMNLNGFDLDGVDYSKDLDIELLRKLEP",0.694,–
"Ald protein: butyraldehyde dehydrogenase (SEQ ID NO:12) from C. beijerinckii ATCC 35702 expressed in E. coli (protein, listed as Clostridium beijerinckii) MNKDTLIPTTKDLKVKTNGENINLKNYKDNSSCFGVFENVENAISSAVHAQKILSLHYTKEQREKIITEIRKAALQNKEVLATMILEETHMGRYEDKILKHELVAKYTPGTEDLTTTAWSGDNGLTVVEMSPYGVIGAITPSTNPTETVICNSIGMIAAGNAVVFNGHPCAKKCVAFAVEMINKAIISCGGPENLVTTIKNPTMESLDAIIKHPSIKLLCGTGGPGMVKTLLNSGKKAIGAGAGNPPVIVDDTADIEKAGRSIIEGCSFDNNLPCIAEKEVFVFENVADDLISNMLKNNAVIINEDQVSKLIDLVLQKNNETQEYFINKKWVGKDAKLFLDEIDVESPSNVKCIICEVNANHPFVMTELMMPILPIVRVKDIDEAIKYAKIAEQNRKHSAYIYSKNIDNLNRFEREIDTTIFVKNAKSFAGVGYEAEGFTTFTIAGSTGEGITSARNFTRQRRCVLAG",–,0.106
